Laboratory results published in article PMC4879523.

How the values were obtained:
[1] = molecular target: α subunit of the chimeric Gi protein fused to TagRFP
[2] = molecular target: α subunit of the chimeric Gi protein fused to TagRFP; test: FRET or BRET; sensitized-emission FRET in live HeLa cells 2 days after co-transfection; donor EGFP at the C-terminus of LANCL2 forms, acceptor TagRFP at the N-terminus of the chimeric Gi α subunit; apparent FRET efficiency in plasmamembrane or whole-cell ROIs

B1: LANCL2 fused to EGFP (receptor)
chain: MGETMSKRLKLHLGGEAEMEERAFVNPFPDYEAAAGALLASGAAEETGCVRPPATTDEPGLPFHQDGKIIHNFIRRIQTKIKDLLQQMEEGLKTADPHDCSAYTGWTGIALLYLQLYRVTCDQTYLLRSLDYVKRTLRNLNGRRVTFLCGDAGPLAVGAVIYHKLRSDCESQECVTKLLQLQRSVVCQESDLPDELLYGRAGYLYALLYLNTEIGPGTVCESAIKEVVNAIIESGKTLSREERKTERCPLLYQWHRKQYVGAAHGMAGIYYMLMQPAAKVDQETLTEMVKPSIDYVRHKKFRSGNYPSSLSNETDRLVHWCHGAPGVIHMLMQAYKVFKEEKYLKEAMECSDVIWQRGLLRKGYGICHGTAGNGYSFLSLYRLTQDKKYLYRACKFAEWCLDYGAHGCRIPDRPYSLFEGMAGAIHFLSDVLGPETSRFPAFELDSSKRD
modifications: N-terminal glycine myristoylation
[cAMP]i in HeLa cells overexpressing LANCL2-GFP, 30 s after 5 μM ABA, over basal, unstimulated values [1]: 170% | apparent FRET efficiency (plasmamembrane ROIs) [2]: 20% | apparent FRET efficiency (whole-cell regions) [2]: 20%
